# From patent publication US20050065102, “Medicinal compositions” (published 2005)
# Target: HMG-I (HMGA1a), partially purified (Homo sapiens, UniProt P17096 P17096:2-107)
# Experiment: pulldown; affinity column, eluted with 1 M NaCl; identified by peptide sequencing
# Settings: tags: ammonium sulfate and DEAE fractions from hypoxic SK-N-SH
# Method: The above fraction (III) was dialyzed twice against 5 L of 50 mM Tris-HCl buffer (pH 7.5) at 4° C. for 4 hours. Then, the resulting dialysate was applied to 5′-amino-2′-O-methyl oligo RNA (5′-[…]-3′, SEQ ID NO: 24)-coupled CNBr-activated Sepharose 4B (manufactured by Pharmacia Biotech) affinity column. The above affinity column was washed with 10 ml of the above incubation buffer and then eluted with 15 ml of the incubation buffer containing 1 M NaCl to give a fraction having a binding activity to the RNA probe of No. 5 [fraction (IV), FIG. 7 (IV)] (FIG. 9, lane 4). The result of silver staining of fraction (IV) is shown in lane 4 in FIG. 8, and the result of RNA binding assay thereof is shown in lane 4 in FIG. 9.
# Sequence of HMG-I (HMGA1a), partially purified (P17096 2-107, one chain of several): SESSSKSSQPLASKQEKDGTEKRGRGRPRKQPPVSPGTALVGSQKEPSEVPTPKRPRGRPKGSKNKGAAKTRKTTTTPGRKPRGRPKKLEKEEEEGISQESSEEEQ
binder,measurement,value
"AUCUUCUUGGUGGUGCUCUACAAGUACCGCUGCUACAAGGUGAGGCCCU (ssRNA, 2'-OMe all, 5'-amino) [5'-amino-2'-O-methyl oligo RNA affinity ligand]",binding result,binds
